The source of these data is article PMC7990499, “eIF2B conformation and assembly state regulate the integrated stress response” (eLife, 2021).

pIC50: −log10 of the molar value.

Test [1] addresses eIF2B(αβδγε)2 decamer (human) (UniProt Q14232). In words: fluorescence polarisation; displacement of FAM-ISRIB (2.5 nM) from 100 nM eIF2B(αβδγε)2 by titrated eIF2, eIF2-P, eIF2α or eIF2α-P; 30 min at 22°C; 20 mM HEPES-KOH pH 7.5, 100 mM KCl, 5 mM MgCl2, 1 mM TCEP; also timecourses with PKR or λ phosphatase at 5.6 μM eIF2α/eIF2α-P.
For test [2] the target is unchanged.

Substance “human phosphorylated eIF2α (eIF2α-P) (from UniProt P05198 1-315) (natural protein)” had a pIC50 in test [1] of 5.40. The t1/2 of BODIPY-FL-GDP exchange on eIF2 by 10 nM eIF2B(αβδγε)2 (GEF activity) at 0, 0.2, 1 and 2 μM eIF2α-P (control 2.4 min) in test [2] is 6.7 min.

“phosphorylated heterotrimeric human eIF2 (eIF2-P) (from UniProt P05198 1-315; P20042 1-333; P41091 1-472) (complex)” showed a pIC50 in test [1] of 6.68. For the same substance, the t1/2 of BODIPY-FL-GDP exchange on eIF2 by 10 nM eIF2B(αβδγε)2 (GEF activity) at 0, 50, 100 and 250 nM eIF2-P (control 1.6 min) in test [2] amounted to 7.2 min.
